Patent US20150353614

Key:
Experiment in all cases: cell_activity
[1] = target: IA (Idi-AraC DBD chimera) (Escherichia coli) (UniProt P0A9E0); details: no mevalonate
[2] = target: IA32 L39M,S127C (Escherichia coli) (UniProt P0A9E0); details: half the Tmax of IA; E. coli HC175
[3] = target: IA44 R267H (Escherichia coli) (UniProt P0A9E0); details: twice the Tmax of IA; E. coli HC175

Row | Sequence | activity ([1]; 0.36 with 10 mM mevalonate, E. coli HC175) [relative RFP] | activity (Tmax relative to IA) [2] | activity (Tmax relative to IA) [3] | activity ([1]; 0.56 with 10 mM mevalonate) [relative RFP]
1 | TAGCATTTTTATCCATAAGATTAGCGGATCCTACCTGA (double strand) [I1I2 in PBAD] | 1 | 0.5 | 2 | 
2 | TAGCGGATCCTACCTGAAGATTAGCATTTTTATCCATA (double strand) [I2I1 in PBAD] |  |  |  | 1.12
